Experimental data from patent publication US20250250328A1.

Tests used:
Test in all cases: cell-based or functional assay
[1] = target: HIV-1 envelope 3468_V1_C12 (HIV-1)
[2] = target: HIV-1 envelope X2088.C9 (HIV-1)
[3] = target: HIV-1 envelope 42368 (HIV-1)
[4] = target: HIV-1 envelope Q461_E2 (HIV-1)
[5] = target: HIV-1 envelope 3637_V5_C3 (HIV-1)
[6] = target: HIV-1 envelope ZM106.9 (HIV-1)
[7] = target: HIV-1 envelope 3326_V4_C3 (HIV-1)
[8] = target: HIV-1 envelope TRO11 (HIV-1)
[9] = target: HIV-1 envelope CNE55 (HIV-1)
[10] = target: HIV-1 envelope 25710 (HIV-1)
[11] = target: HIV-1 envelope NL4-3 (HIV-1)
[12] = target: HIV-1 envelope JRFL (HIV-1)
[13] = target: HIV-1 envelope JR-CSF (HIV-1)
[14] = target: HIV-1 envelope CH119 (HIV-1)
[15] = target: HIV-1 envelope CE0217 (HIV-1)
[16] = target: HIV-1 envelope CNE8 (HIV-1)
[17] = target: HIV-1 envelope 398F1 (HIV-1)
[18] = target: HIV-1 envelope X1632_S2_B10 (HIV-1)
[19] = target: HIV-1 envelope CE1176 (HIV-1)
[20] = target: HIV-1 envelope X2278 (HIV-1)
[21] = target: HIV-1 envelope BJOX2000 (HIV-1)
[22] = target: HIV-1 envelope CC1/85 (HIV-1)
[23] = target: HIV-1 envelope CAP45.2.00.G3 (HIV-1)
[24] = target: HIV-1 envelope 246F3 (HIV-1)
[25] = target: HIV-1 envelope T278.50 (HIV-1)
[26] = target: HIV-2 envelope HIV-2-ATM88 (HIV-2)
[27] = target: HIV-1 envelope of laboratory strain NL4-3 (HIV-1)
[28] = target: a different panel of HIV-1 envelopes from bNAb1-resistant strains
[29] = target: HIV-2 envelope HIV-2-HCC-01 (HIV-2)

B1: bNAb18 (antibody, V domains shown)
VH: QVQLVQSGAEVRKPGSSVTISCKPVGGTFTNFAIHWVRQAPGQGLEWVGGRVPVVGIYKYGKKFHDRLRLYEDDPMKTVFLELRSLTSDDTGVYYCTRWRGCGMCPYDTSSYYNDASDVWGPGTKVIVSA
VL: EIVLTQSPVTLSLSSGETGTLSCRASQNISSSWIAWYQQRRGQVPRLLISAASARAAGIPDRFTGRGSGTDFTLTITRLEPEDFGVYSCQYYGGSFFTFGPGTQVDVKR
IC50, PSV assay [1]: > 500 nM | IC50, PSV assay [2]: 0.2 nM | IC50, PSV assay [3]: > 500 nM | IC50, PSV assay [4]: > 500 nM | IC50, PSV assay [5]: > 500 nM | IC50, PSV assay [6]: 0.11 nM | IC50, PSV assay [7]: > 500 nM

B2: bNAb5 (antibody, V domains shown)
VH: QLQMQESGPGLVKPSETLSLSCTVSGDSIRGGEWGDKDYHWGWVRHSAGKGLEWIGSIHWRGTTHYKESLRRRVSMSIDTSRNWFSLRLASVTAADTAVYFCARHRHHDVFMLVPIAGWFDVWGPGVQVTVSS
VL: EIVMTQSPDTLSVSPGETVTLSCRASQNINKNLAWYQYKPGQSPRLVIFETYSKIAAFPARFVASGSGTEFTLTINNMQSEDVAVYYCQQYEEWPRTFGQGTKVDIKR
IC50 (nM), PSV assay [8]: 0.39 nM | IC50 (nM), PSV assay [9]: 3300 nM | IC50 (nM), PSV assay [10]: 8.1 nM | IC50 (nM), PSV assay [11]: 2.62 nM | IC50 (nM), PSV assay [12]: 58.2 nM | IC50 (nM), PSV assay [2]: 0.17 nM | IC50 (nM), PSV assay [13]: 0.64 nM | IC50 (nM), PSV assay [3]: > 500 nM | IC50 (nM), PSV assay [14]: 63.5 nM | IC50 (nM), PSV assay [15]: 410 nM | IC50 (nM), PSV assay [16]: 51.4 nM | IC50 (nM), PSV assay [17]: 1.83 nM | IC50 (nM), PSV assay [6]: 2.04 nM | IC50 (nM), PSV assay [18]: > 500 nM | IC50 (nM), PSV assay [19]: 57.1 nM | IC50 (nM), PSV assay [20]: 9.53 nM | IC50 (nM), PSV assay [21]: 127 nM | IC50 (nM), PSV assay [22]: > 500 nM | IC50 (nM), PSV assay [23]: > 500 nM | IC50 (nM), PSV assay [24]: 40.9 nM | IC50 (nM), PSV assay [25]: 96.1 nM

B3: bNAb14 (antibody, V domains shown)
VH: QLQLQESGPGLVKPSETLSLTCTVSGGSMRGTDWGENDFHYGWIRQSSAKGLEWIGSIHWRGRTTHYKTSFRSRATLSIDTSNNRFSLTFSFVTAADTAVYYCARHKYHDIFRVVPVAGWFDPWGQGLLVTVSS
VL: EIVMTQSPPTLSVSPGETATLSCRASQNVKNNLAWYQLKPGQAPRLLIFDASSRAGGIPDRFSGSGYGTDFTLTVNSVQSEDFGDYFCQQYEEWPRTFGQGTKVDIKR
IC50, PSV assay [1]: > 500 nM | IC50, PSV assay [2]: 2.79 nM | IC50, PSV assay [3]: > 500 nM | IC50, PSV assay [4]: > 500 nM | IC50, PSV assay [5]: > 500 nM | IC50, PSV assay [6]: 1.26 nM | IC50, PSV assay [7]: > 500 nM

B4: bNAb15 (antibody, V domains shown)
VH: EVHLEESGPGLVRPSETLSLTCTASGGSIRGGEWGDSDYHWGWVRHSPEKGLEWIGSIHWRGTTHYNAPFRGRGRLSIDLSRNQFSLRLTSVTAEDTAVYYCVKHKYHDIVMVVPIAGWFDPWGQGLQVTVSS
VL: EIMMTQSPAILSVSPGDRATLSCRASQSVKNNLAWYQKRPGQAPRLLIFDTSSRASGIPARFSGGGSGTEFTLTVNSMQSEDFATYYCQQYEEWPRTFGQGTKVEIKR
IC50, PSV assay [1]: > 500 nM | IC50, PSV assay [2]: 2.58 nM | IC50, PSV assay [3]: > 500 nM | IC50, PSV assay [4]: > 500 nM | IC50, PSV assay [5]: 5 nM | IC50, PSV assay [6]: 1.34 nM | IC50, PSV assay [7]: > 500 nM

B5: bNAb3 (antibody, V domains shown)
VH: QVQLRESGPGLVKPSETLSLSCTVSNDSRPSDHSWTWVRQSPGKALEWIGDIHYNGATTYNPSLRSRVRIELDQSIPRFSLKMTSMTAADTGMYYCARNAIRIYGVVALGEWFHYGMDVWGQGTAVTVSS
VL: SSELTQPPSVSVSPGQTARITCSGAPLTSRFTYWYRQKPGQAPVLIISRSSQRSSGWSGRFSASWSGTTVTLTIRGVQADDEADYYCQSSDTSDSYKMFGGGTKLTVLG
IC50 (nM), PSV assay (ACTOne cells) [11]: 0.15 nM | IC50 (nM), PSV assay (ACTOne cells) [2]: 0.03 nM | IC50 (nM), PSV assay (ACTOne cells) [3]: > 500 nM | IC50 (nM), PSV assay (ACTOne cells) [6]: 0.03 nM | IC50 (nM), PSV assay (ACTOne cells) [22]: 38.3 nM | IC50 (nM), PSV assay (ACTOne cells) [23]: > 500 nM | IC50 (nM), PSV assay (ACTOne cells) [25]: 0.01 nM

B6: bNAb23 (antibody, V domains shown)
VH: QVQLLESGPGLVRPSETLTLTCSVFNSRVSGYYYSWIRQPPGRGLEWIASTHFSLRPSRNPSLLSRVTTSIDTERYQVFLNMRSVTAADTAVYFCARGDASGWRADYFPHWGQGTLVVVSS
VL: QSVLTQPPSASGSPGQSVTISCTGTSSDIGASDYVSWYQQYPGEAPKVIIYDVTKRPSGVPDRFSGSKSGTTASLTVSGLQAEDEADYYCSSDAGRHTLLFGGGTKVTVLG
IC50, PSV assay [1]: > 500 nM | IC50, PSV assay [2]: > 500 nM | IC50, PSV assay [3]: > 500 nM | IC50, PSV assay [4]: > 500 nM | IC50, PSV assay [5]: > 500 nM | IC50, PSV assay [6]: 17.4 nM | IC50, PSV assay [7]: 15.3 nM

B7: bNAb19 (antibody, V domains shown)
VH: EVQLVESGGGLVKAGGSLILSCGVSNFRISAHTMNWVRRVPGGGLEWVASISTSSTYRDYADAVKGRFTVSRDDLEDFVYLQMHKMRVEDTAIYYCARKGSDRLSDNDPFDAWGPGTVVTVSP
VL: DVVMTQSPSTLSASVGDTITITCRASQSIETWLAWYQQKPGKAPKLLIYKASTLKTGVPSRFSGSGSGTEFTLTISGLQFDDFATYHCQHYAGYSATFGQGTRVEIKR
IC50, PSV assay [1]: > 300 nM | IC50, PSV assay [2]: > 300 nM | IC50, PSV assay [3]: > 300 nM | IC50, PSV assay [4]: > 300 nM | IC50, PSV assay [5]: > 300 nM | IC50, PSV assay [6]: > 300 nM | IC50, PSV assay [7]: > 300 nM

B8: bNAb16 (antibody, V domains shown)
VH: EVQLVESGGGLVKPGGSLRLTCVASGFTFSDVWLNWVRQAPGKGLEWVGRIKSRTDGGTTDYAASVKGRFTISRDDSKNTLYLQMNSLKTEDTAVYSCTTDGFIMIRGVSEDYYYYYMDVWGKGTTVTVSS
VL: QSVLTQPPSVSAAPGQKVTISCSGSSSNIGNNYVLWYQQFPGTAPKLLIYGNNKRPSGIPDRFSGSKSGTSATLGITGLQTGDEADYFCATWDSGLSADWVFGGGTKLTVLG
IC50, PSV assay [1]: > 500 nM | IC50, PSV assay [2]: 289 nM | IC50, PSV assay [3]: > 500 nM | IC50, PSV assay [4]: > 500 nM | IC50, PSV assay [5]: > 500 nM | IC50, PSV assay [6]: > 500 nM | IC50, PSV assay [7]: > 500 nM

B9: bNAb1 (antibody, V domains shown)
VH: QPQLQESGPTLVEASETLSLTCAVSGDSTAACNSFWGWVRQPPGKGLEWVGSLSHCASYWNRGWTYHNPSLKSRLTLALDTPKNLVFLKLNSVTAADTATYYCARFGGEVLRYTDWPKPAWVDLWGRGTLVTVSS
VL: QSALTQPPSASGSPGQSITISCTGTSNNFVSWYQQHAGKAPKLVIYDVNKRPSGVPDRFSGSKSGNTASLTVSGLQTDDEAVYYCGSLVGNWDVIFGGGTKLTVLG
IC50, PSV assay [26]: > 500 nM | EC50 (replicating virus assay) [27]: > 500 nM | IC50 (nM), PSV assay (ACTOne cells) [11]: 131 nM | IC50 (nM), PSV assay (ACTOne cells) [2]: 402 nM | IC50 (nM), PSV assay (ACTOne cells) [3]: > 500 nM | IC50 (nM), PSV assay (ACTOne cells) [6]: 0.07 nM | geometric mean IC50, PSV assay (ACTOne), FIG. 4B [28]: > 10 nM | IC50, PSV assay [29]: > 500 nM | IC50 (nM), PSV assay (ACTOne cells) [22]: 0.03 nM | IC50 (nM), PSV assay (ACTOne cells) [23]: > 500 nM | IC50 (nM), PSV assay (ACTOne cells) [25]: 0.17 nM
